In this experiment the target is CK2β 1-193 (Homo sapiens, UniProt P67870). In words: microscale thermophoresis. (In general: In MST a laser heats a spot of the sample, and binding alters the fluorescence response.)
CK2β 1-193, sequence (P67870 1-193): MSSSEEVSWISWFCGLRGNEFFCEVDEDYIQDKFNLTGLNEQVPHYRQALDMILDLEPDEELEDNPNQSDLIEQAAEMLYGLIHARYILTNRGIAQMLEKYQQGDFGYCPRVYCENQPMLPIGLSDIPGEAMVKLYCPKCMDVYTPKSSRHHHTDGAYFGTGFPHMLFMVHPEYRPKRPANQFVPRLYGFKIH

B1: CK2α 1-335 (protein)
chain: MSGPVPSRARVYTDVNTHRPREYWDYESHVVEWGNQDDYQLVRKLGRGKYSEVFEAINITNNEKVVVKILKPVKKKKIKREIKILENLRGGPNIITLADIVKDPVSRTPALVFEHVNNTDFKQLYQTLTDYDIRFYMYEILKALDYCHSMGIMHRDVKPHNVMIDHEHRKLRLIDWGLAEFYHPGQEYNVRVASRYFKGPELLVDYQMYDYSLDMWSLGCMLASMIFRKEPFFHGHDNYDQLVRIAKVLGTEDLYDYIDKYNIELDPRFNDILGRHSRKRWERFVHSENQHLVSPEALDFLDKLLRYDHQSRLTAREAMEHPYFYTVVKDQARMG
modifications: CK2β fluorescently labelled (RED-NHS)
In the case of B1, the Kd is 12 nM.

For orientation: Kd means a measure of binding affinity in units of concentration. Low values mean higher affinity, high ones lower affinity.

For the origin of these results see publication PMC7418559 (2020).
